This is an account of results in US20130059806A1.

One test deals with biotin-FLAG-tagged TR2 and TR4 (biotin-FLAG-TR2 and biotin-FLAG-TR4 co-expressed in BirA-expressing MEL cells) (UniProt Q505F1). The test is described as follows: streptavidin purification of biotin-tagged TR2/TR4 from MEL nuclear extract, mass spectrometry, experiment #1.
biotin-FLAG-tagged TR2 and TR4 (biotin-FLAG-TR2 and biotin-FLAG-TR4 co-expressed in BirA-expressing MEL cells), sequence (Q505F1 whole entry, chain 1 of 2): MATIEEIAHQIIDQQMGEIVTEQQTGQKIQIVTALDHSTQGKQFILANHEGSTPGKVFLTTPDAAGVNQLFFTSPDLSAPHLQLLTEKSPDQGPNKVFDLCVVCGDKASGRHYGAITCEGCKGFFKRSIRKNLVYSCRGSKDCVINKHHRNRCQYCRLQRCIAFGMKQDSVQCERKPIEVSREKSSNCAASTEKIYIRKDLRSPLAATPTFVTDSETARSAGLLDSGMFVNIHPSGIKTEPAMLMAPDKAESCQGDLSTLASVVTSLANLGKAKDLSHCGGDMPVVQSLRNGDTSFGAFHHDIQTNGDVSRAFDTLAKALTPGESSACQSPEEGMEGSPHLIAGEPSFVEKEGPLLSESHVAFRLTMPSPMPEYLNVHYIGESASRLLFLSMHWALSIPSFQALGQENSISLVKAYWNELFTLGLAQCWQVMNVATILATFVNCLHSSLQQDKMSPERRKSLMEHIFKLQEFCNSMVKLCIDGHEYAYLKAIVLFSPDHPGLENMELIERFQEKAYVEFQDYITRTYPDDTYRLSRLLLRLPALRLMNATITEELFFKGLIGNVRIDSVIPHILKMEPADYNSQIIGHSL
biotin-FLAG-tagged TR2 and TR4 (biotin-FLAG-TR2 and biotin-FLAG-TR4 co-expressed in BirA-expressing MEL cells), sequence (P49117 whole entry, chain 2 of 2, further chain): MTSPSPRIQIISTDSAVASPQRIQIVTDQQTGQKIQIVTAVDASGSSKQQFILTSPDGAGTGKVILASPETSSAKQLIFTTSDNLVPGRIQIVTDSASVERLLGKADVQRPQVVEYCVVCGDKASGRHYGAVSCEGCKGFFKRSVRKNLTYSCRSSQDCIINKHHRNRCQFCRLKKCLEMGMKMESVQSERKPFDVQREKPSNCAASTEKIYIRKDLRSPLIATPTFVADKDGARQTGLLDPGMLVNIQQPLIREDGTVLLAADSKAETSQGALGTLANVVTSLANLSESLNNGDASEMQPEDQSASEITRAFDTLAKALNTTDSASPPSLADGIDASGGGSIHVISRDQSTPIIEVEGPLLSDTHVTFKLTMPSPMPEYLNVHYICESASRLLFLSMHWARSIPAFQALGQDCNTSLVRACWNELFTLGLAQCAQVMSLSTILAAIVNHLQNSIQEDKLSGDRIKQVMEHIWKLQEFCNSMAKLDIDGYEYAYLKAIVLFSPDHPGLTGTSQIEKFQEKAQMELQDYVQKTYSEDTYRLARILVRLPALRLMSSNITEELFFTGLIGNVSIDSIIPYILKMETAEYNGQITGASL
PSPC1 (from UniProt Q8R326 1-523) gave a % coverage of 3.3% and a total peptides of 1 peptides.

For the substance SFPQ (from UniProt Q8VIJ6 1-699), the % coverage is 15.3% and the total peptides was found to be 12 peptides.

With RbAp46 (from UniProt Q60973 2-425), the % coverage is 2% and the total peptides worked out at 2 peptides.

For the substance “HCF1 (Host Cell Factor 1) (from UniProt Q61191 2-2045)”, the % coverage came out at 2.5% and the total peptides is 4 peptides.

“transcriptional intermediary factor (TIF)-1beta (from UniProt Q62318 2-834)” gave a % coverage of 12.7% and a total peptides of 16 peptides.

The substance MTA1 (from UniProt Q8K4B0 1-715) came in with a % coverage of 8.7% and a total peptides of 7 peptides.

As to “Mi2β (from UniProt Q6PDQ2 1-1915) (enzyme)”, the % coverage came out at 1.1% and the total peptides stood at 1 peptides.

RbAp48 (from UniProt Q60972 2-425): the % coverage is 2% and the total peptides was 2 peptides.

On to MTA2 (from UniProt Q9R190 1-668), for which the % coverage turned out to be 2.8% and the total peptides was determined as 2 peptides.

On to “BRG1 (from UniProt Q3TKT4 1-1613) (enzyme)”, for which the % coverage was 1.4% and the total peptides was determined as 2 peptides.

For “HDAC1 (from UniProt O09106 1-482) (enzyme)”, the % coverage was determined as 4.4% and the total peptides was 2 peptides.

As to “DNA methyltransferase 1 (DNMT1) (from UniProt P13864 1-1620) (enzyme)”, the % coverage worked out at 13.5% and the total peptides is 35 peptides.

The substance NonO (from UniProt Q99K48 1-473) came in with a % coverage of 7.8% and a total peptides of 10 peptides.

The target is the same in the next test. Kind of test: streptavidin purification of biotin-tagged TR2/TR4 from MEL nuclear extract, mass spectrometry, experiment #2.
In turn, PSPC1 (from UniProt Q8R326 1-523) showed a % coverage of 7.8% and a total peptides of 3 peptides.

With SFPQ (from UniProt Q8VIJ6 1-699), the % coverage was 15.9% and the total peptides is 8 peptides.

In the case of RbAp46 (from UniProt Q60973 2-425), the % coverage worked out at 6.8% and the total peptides was determined as 3 peptides.

The substance “HCF1 (Host Cell Factor 1) (from UniProt Q61191 2-2045)” displayed a % coverage of 1.4% and a total peptides of 2 peptides.

CAPER (from UniProt Q8VH51 2-530) yielded a % coverage of 4.9% and a total peptides of 2 peptides.

On to “transcriptional intermediary factor (TIF)-1beta (from UniProt Q62318 2-834)”, for which the % coverage stood at 9% and the total peptides is 6 peptides.

In turn, MTA1 (from UniProt Q8K4B0 1-715) showed a % coverage of 1.7% and a total peptides of 1 peptides.

Consider “Mi2β (from UniProt Q6PDQ2 1-1915) (enzyme)”, for which the % coverage stood at 5.3% and the total peptides worked out at 4 peptides.

The substance RbAp48 (from UniProt Q60972 2-425) registered a % coverage of 6.3% and a total peptides of 3 peptides.

In turn, “DNA methyltransferase 1 (DNMT1) (from UniProt P13864 1-1620) (enzyme)” yielded a % coverage of 10.1% and a total peptides of 14 peptides.

Substance NonO (from UniProt Q99K48 1-473) yielded a % coverage of 17.8% and a total peptides of 9 peptides.

The target is the same in another test. Kind of test: streptavidin purification of biotin-tagged TR2/TR4 from MEL nuclear extract, mass spectrometry, experiment #3.
For PSPC1 (from UniProt Q8R326 1-523), the % coverage is 4.6% and the total peptides was 2 peptides.

For SFPQ (from UniProt Q8VIJ6 1-699), the % coverage is 18.2% and the total peptides was 10 peptides.

“HDAC2 (from UniProt P70288 1-488) (enzyme)” displayed a % coverage of 4.9% and a total peptides of 2 peptides.

“HCF1 (Host Cell Factor 1) (from UniProt Q61191 2-2045)” registered a % coverage of 0.8% and a total peptides of 1 peptides.

As to CAPER (from UniProt Q8VH51 2-530), the % coverage stood at 2.6% and the total peptides came out at 1 peptides.

For the substance “transcriptional intermediary factor (TIF)-1beta (from UniProt Q62318 2-834)”, the % coverage amounted to 1.8% and the total peptides came out at 1 peptides.

MTA1 (from UniProt Q8K4B0 1-715) yielded a % coverage of 1.8% and a total peptides of 1 peptides.

“Mi2β (from UniProt Q6PDQ2 1-1915) (enzyme)” displayed a % coverage of 4.4% and a total peptides of 6 peptides.

RbAp48 (from UniProt Q60972 2-425) gave a % coverage of 1.9% and a total peptides of 1 peptides.

Substance “BRG1 (from UniProt Q3TKT4 1-1613) (enzyme)” gave a % coverage of 0.8% and a total peptides of 1 peptides.

Substance “HDAC1 (from UniProt O09106 1-482) (enzyme)” displayed a % coverage of 8.9% and a total peptides of 3 peptides.

Turning to “DNA methyltransferase 1 (DNMT1) (from UniProt P13864 1-1620) (enzyme)”, the % coverage amounted to 10.4% and the total peptides was found to be 15 peptides.

Substance NonO (from UniProt Q99K48 1-473) returned a % coverage of 11% and a total peptides of 7 peptides.

For the substance Sin3A (from UniProt Q60520 1-1274), the % coverage is 1.1% and the total peptides worked out at 1 peptides.
